From patent US20240117018A1

Assays:
Assay in all cases: cell-based or functional assay
[1] = target: HIV-1 Env of pseudovirus 3301.v1.c24 (HIV-1)
[2] = target: HIV-1 Env of pseudovirus T255-34 (HIV-1)
[3] = target: HIV-1 Env of pseudovirus R1166.c01 (HIV-1)
[4] = target: HIV-1 Env of pseudovirus C4118.c09 (HIV-1)
[5] = target: HIV-1 Env of pseudovirus BJOX010000.06.2 (HIV-1)
[6] = target: HIV-1 Env of pseudovirus 6540.v4.c1 (HIV-1)
[7] = target: HIV-1 Env of pseudovirus X1193_c1 (HIV-1)
[8] = target: HIV-1 Env of pseudovirus 235-47 (HIV-1)
[9] = target: HIV-1 Env of pseudovirus BJOX025000.01.1 (HIV-1)
[10] = target: HIV-1 Env of pseudovirus 620345.c01 (HIV-1)
[11] = target: HIV-1 Env of pseudovirus 211-9 (HIV-1)
[12] = target: HIV-1 Env of pseudovirus X1632_S2_B10 (HIV-1)
[13] = target: HIV-1 Env of pseudovirus BJOX028000.10.3 (HIV-1)
[14] = target: HIV-1 Env of pseudovirus 3817.v2.c59 (HIV-1)
[15] = target: HIV-1 Env of pseudovirus BJOX015000.11.5 (HIV-1)
[16] = target: HIV-1 Env of pseudovirus 3016.v5.c45 (HIV-1)
[17] = target: HIV-1 Env of pseudovirus 6545.v4.c1 (HIV-1)
[18] = target: HIV-1 Env of pseudovirus P0402_c2_11 (HIV-1)
[19] = target: HIV-1 Env of pseudovirus T251-18 (HIV-1)
[20] = target: HIV-1 Env of pseudovirus 89-F1_2_25 (HIV-1)
[21] = target: HIV-1 Env of pseudovirus 0815.v3.c3 (HIV-1)
[22] = target: HIV-1 Env of pseudovirus 6811.v7.c18 (HIV-1)
[23] = target: HIV-1 Env of pseudovirus R3265.c06 (HIV-1)
[24] = target: HIV-1 Env of pseudovirus C1080.c03 (HIV-1)
[25] = target: HIV-1 Env of pseudovirus X2131_C1_B5 (HIV-1)
[26] = target: HIV-1 Env of pseudovirus 6480.v4.c25 (HIV-1)
[27] = target: HIV-1 Env of pseudovirus P1981_C5_3 (HIV-1)
[28] = target: HIV-1 Env of pseudovirus 231966.c02 (HIV-1)
[29] = target: HIV-1 Env of pseudovirus R2184.c04 (HIV-1)
[30] = target: HIV-1 Env of pseudovirus A07412M1.vrc12 (HIV-1)
[31] = target: HIV-1 Env of pseudovirus X1254_c3 (HIV-1)

## 10E8 (antibody)
[1]
  IC50 neutralization (TZM.bl): 4.63 µg/mL
  IC80 neutralization (TZM.bl): > 10 µg/mL
[2]
  IC50 neutralization (TZM.bl): 0.778 µg/mL
  IC80 neutralization (TZM.bl): 4.21 µg/mL
[3]
  IC50 neutralization (TZM.bl): 0.274 µg/mL
  IC80 neutralization (TZM.bl): 2.61 µg/mL
[4]
  IC50 neutralization (TZM.bl): 1.62 µg/mL
  IC80 neutralization (TZM.bl): 9.06 µg/mL
[5]
  IC50 neutralization (TZM.bl): 0.341 µg/mL
  IC80 neutralization (TZM.bl): 5.29 µg/mL
[6]
  IC50 neutralization (TZM.bl): 1.9 µg/mL
  IC80 neutralization (TZM.bl): 10 µg/mL
[7]
  IC50 neutralization (TZM.bl): 0.497 µg/mL
  IC80 neutralization (TZM.bl): 4.2 µg/mL
[8]
  IC50 neutralization (TZM.bl): 0.384 µg/mL
  IC80 neutralization (TZM.bl): 2.07 µg/mL
[9]
  IC50 neutralization (TZM.bl): 0.107 µg/mL
  IC80 neutralization (TZM.bl): 6.33 µg/mL
[10]
  IC50 neutralization (TZM.bl): 0.455 µg/mL
  IC80 neutralization (TZM.bl): 6 µg/mL
[11]
  IC50 neutralization (TZM.bl): 1.09 µg/mL
  IC80 neutralization (TZM.bl): 6.51 µg/mL
[12]
  IC50 neutralization (TZM.bl): 1.98 µg/mL
  IC80 neutralization (TZM.bl): 9.68 µg/mL
[13]
  IC50 neutralization (TZM.bl): 0.665 µg/mL
  IC80 neutralization (TZM.bl): 7.36 µg/mL
[14]
  IC50 neutralization (TZM.bl): 1.18 µg/mL
  IC80 neutralization (TZM.bl): 5.98 µg/mL
[15]
  IC50 neutralization (TZM.bl): 0.051 µg/mL
  IC80 neutralization (TZM.bl): 1.91 µg/mL
[16]
  IC50 neutralization (TZM.bl): 0.476 µg/mL
  IC80 neutralization (TZM.bl): 4.39 µg/mL
[17]
  IC50 neutralization (TZM.bl): 1.78 µg/mL
  IC80 neutralization (TZM.bl): 8.23 µg/mL
[18]
  IC50 neutralization (TZM.bl): 0.172 µg/mL
  IC80 neutralization (TZM.bl): 3.29 µg/mL
[19]
  IC50 neutralization (TZM.bl): 2.36 µg/mL
  IC80 neutralization (TZM.bl): > 10 µg/mL
[20]
  IC50 neutralization (TZM.bl): 1.11 µg/mL
  IC80 neutralization (TZM.bl): 10 µg/mL
[21]
  IC50 neutralization (TZM.bl): 0.332 µg/mL
  IC80 neutralization (TZM.bl): 2.87 µg/mL
[22]
  IC50 neutralization (TZM.bl): 7.54 µg/mL
  IC80 neutralization (TZM.bl): > 10 µg/mL
[23]
  IC50 neutralization (TZM.bl): > 10 µg/mL
  IC80 neutralization (TZM.bl): > 10 µg/mL
[24]
  IC50 neutralization (TZM.bl): 0.061 µg/mL
  IC80 neutralization (TZM.bl): 0.731 µg/mL
[25]
  IC50 neutralization (TZM.bl): 0.189 µg/mL
  IC80 neutralization (TZM.bl): 0.974 µg/mL
[26]
  IC50 neutralization (TZM.bl): 8.08 µg/mL
  IC80 neutralization (TZM.bl): > 10 µg/mL
[27]
  IC50 neutralization (TZM.bl): 0.057 µg/mL
  IC80 neutralization (TZM.bl): 0.285 µg/mL
[28]
  IC50 neutralization (TZM.bl): 0.191 µg/mL
  IC80 neutralization (TZM.bl): 3.13 µg/mL
[29]
  IC50 neutralization (TZM.bl): 0.272 µg/mL
  IC80 neutralization (TZM.bl): 2.46 µg/mL
[30]
  IC50 neutralization (TZM.bl): 0.576 µg/mL
  IC80 neutralization (TZM.bl): 6.05 µg/mL
[31]
  IC50 neutralization (TZM.bl): 4.75 µg/mL
  IC80 neutralization (TZM.bl): > 10 µg/mL
